Data as given in US7354588B1, “Functional derivatives of ICAM-1 with altered ability to bind LFA-1 or HRV” (Dana Farber Cancer Institute, priority 1987, dated 2008).

Tests used:
LFA-1 = molecular target: T1, LFA-1 (Homo sapiens, UniProt P05107+P20701); test: Adherence of COS cells expressing ICAM-1 or ICAM-1 mutants to plastic-bound purified LFA-1; type: cell-based; conditions: for LFA-1 Binding %: COS cells expressing ICAM-1 mutant adhering to LFA-1 coated plastic, normalized for percent of cells expressing mutant and for wild type binding, mean
T1 construct: endogenous in cells

HRV14 = test: Binding of [^35S]-Met labeled HRV14 to COS cells expressing ICAM-1 mutants; type: cell-based, human rhinovirus 14; conditions: for HRV Binding %: 35S met-labeled HRV14 binding to COS cells expressing ICAM-1 mutant, normalized for percent of cells expressing mutant and for wild type binding, mean; for decrease in HRV14 binding: COS cells expressing the mutant, relative to wild type
CL203 mAb = test: Indirect immunofluorescence flow cytofluorometry: mAb CL203 binding to COS cells expressing ICAM-1 mutants (SLFI, % WT); type: cell-based; conditions: SLFI of CL203 for mutant normalized to wild type CL203 SLFI; level of expression
Procedure: (§1) For HRV binding studies, COS cells were reseeded in a 24 well plate. One day later, the confluent monolayer was washed twice with 1 ml of RPMI 1640/10 mM MgCl2/25 mM Hepes pH 7.3 (rhinovirus-14 buffer). Transfected COS cells were labeled with 51Cr for binding to LFA-1 coated plastic as previously described (Staunton, D. E., et al., Nature 339:61-64 (1989). Immunoprecipitation and indirect immunofluorescence was performed using ICAM-1 MAb RR1/1 (Rothlein, R., et al., J. Immunol. 137:1270-1274 (1986)), R6.5 (Rothlein, R., et al., J. Immunol. 141:1665-1669 (1988)), LB-1 (Clark, E. A., et al., Hum. Immunol. 16:100-113 (1986)) and CL203 (Maio, M., J. Immunol. 143:181-188 (1989), all of which references are incorporated herein by reference).
(§2) Binding of RR1, R6.5, and LB-2 mAb was normalized to binding of CL203 mAb using Specific Linear Fluorescence Intensity (SLFI): % CL203=(mAbSLFI)×100)/CL203mABSLFI
(§3) In Table 25, the notation for the mutations uses the one-letter code for the wild-type sequence followed by a slash and the one-letter code for the corresponding mutant sequence. The position of the first amino acid within the sequence is indicated. Wild type residues precede the slash followed by the residues they were substituted for in the mutant. COS cells expressing ICAM-1 mutants were tested for adherence to LFA-1 coated plastic and for binding 35S met-labeled HRV14. LFA-1 and HRV14 binding is normalized for percent of cells expressing mutant ICAM-1 and for binding of wild type expressing cells. Binding is presented as mean and standard error (SE) for multiple experiments (n). Effects of two-fold or greater were reproducible in LFA-1, HRV and mAb binding assays and thus considered significant (bold and underlined). The specific linear fluorescence intensity (SLFI) of CL203 for each mutant is normalized to that of wild type CL203 SLFI (% WT) as discussed above. The SLFI of RR1/1, R6.5 and LB-2 SLFI is normalized to the CL203 SLFI of the mutant (% CL203) as described above.

RR1/1 mAb = test: Indirect immunofluorescence flow cytofluorometry: mAb RR1/1 binding to COS cells expressing ICAM-1 mutants (SLFI, % CL203); type: cell-based; conditions: SLFI normalized to CL203 SLFI of the mutant
Procedure: as §1, §2, §3

R6.5 mAb = test: Indirect immunofluorescence flow cytofluorometry: mAb R6.5 binding to COS cells expressing ICAM-1 mutants (SLFI, % CL203); type: cell-based; conditions: SLFI normalized to CL203 SLFI of the mutant
Procedure: as §1, §2, §3

LB-2 mAb = test: Indirect immunofluorescence flow cytofluorometry: mAb LB-2 binding to COS cells expressing ICAM-1 mutants (SLFI, % CL203); type: cell-based; conditions: SLFI normalized to CL203 SLFI of the mutant
Procedure: as §1, §2, §3

T1 sequence (P20701 26-1170): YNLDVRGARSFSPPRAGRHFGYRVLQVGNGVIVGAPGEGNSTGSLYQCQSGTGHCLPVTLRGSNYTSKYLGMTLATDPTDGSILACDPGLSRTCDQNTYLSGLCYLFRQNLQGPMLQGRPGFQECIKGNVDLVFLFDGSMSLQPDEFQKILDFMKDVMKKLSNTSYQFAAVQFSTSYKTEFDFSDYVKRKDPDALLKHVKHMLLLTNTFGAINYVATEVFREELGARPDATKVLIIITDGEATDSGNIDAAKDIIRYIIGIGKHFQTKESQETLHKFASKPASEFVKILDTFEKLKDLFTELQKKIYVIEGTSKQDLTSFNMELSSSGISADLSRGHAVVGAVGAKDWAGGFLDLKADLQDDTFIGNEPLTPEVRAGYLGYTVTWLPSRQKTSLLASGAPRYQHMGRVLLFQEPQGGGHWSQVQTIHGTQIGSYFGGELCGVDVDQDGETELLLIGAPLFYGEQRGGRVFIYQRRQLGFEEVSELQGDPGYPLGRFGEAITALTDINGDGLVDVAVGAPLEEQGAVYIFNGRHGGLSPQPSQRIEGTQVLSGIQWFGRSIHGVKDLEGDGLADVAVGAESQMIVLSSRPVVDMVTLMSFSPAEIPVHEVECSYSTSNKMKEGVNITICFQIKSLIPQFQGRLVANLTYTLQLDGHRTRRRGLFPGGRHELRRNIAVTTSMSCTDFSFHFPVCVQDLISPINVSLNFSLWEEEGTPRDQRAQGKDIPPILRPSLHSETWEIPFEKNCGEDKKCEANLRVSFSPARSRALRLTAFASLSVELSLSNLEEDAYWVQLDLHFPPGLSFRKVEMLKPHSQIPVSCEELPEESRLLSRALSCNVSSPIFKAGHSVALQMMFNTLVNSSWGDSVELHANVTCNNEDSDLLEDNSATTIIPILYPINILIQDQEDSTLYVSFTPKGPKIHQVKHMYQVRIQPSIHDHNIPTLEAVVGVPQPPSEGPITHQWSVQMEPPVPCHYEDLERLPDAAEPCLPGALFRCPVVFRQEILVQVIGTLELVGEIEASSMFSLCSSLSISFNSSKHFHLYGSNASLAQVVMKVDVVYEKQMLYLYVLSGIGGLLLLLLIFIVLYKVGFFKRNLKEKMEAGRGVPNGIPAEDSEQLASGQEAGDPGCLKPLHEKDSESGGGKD
T1 sequence (P05107 23-769): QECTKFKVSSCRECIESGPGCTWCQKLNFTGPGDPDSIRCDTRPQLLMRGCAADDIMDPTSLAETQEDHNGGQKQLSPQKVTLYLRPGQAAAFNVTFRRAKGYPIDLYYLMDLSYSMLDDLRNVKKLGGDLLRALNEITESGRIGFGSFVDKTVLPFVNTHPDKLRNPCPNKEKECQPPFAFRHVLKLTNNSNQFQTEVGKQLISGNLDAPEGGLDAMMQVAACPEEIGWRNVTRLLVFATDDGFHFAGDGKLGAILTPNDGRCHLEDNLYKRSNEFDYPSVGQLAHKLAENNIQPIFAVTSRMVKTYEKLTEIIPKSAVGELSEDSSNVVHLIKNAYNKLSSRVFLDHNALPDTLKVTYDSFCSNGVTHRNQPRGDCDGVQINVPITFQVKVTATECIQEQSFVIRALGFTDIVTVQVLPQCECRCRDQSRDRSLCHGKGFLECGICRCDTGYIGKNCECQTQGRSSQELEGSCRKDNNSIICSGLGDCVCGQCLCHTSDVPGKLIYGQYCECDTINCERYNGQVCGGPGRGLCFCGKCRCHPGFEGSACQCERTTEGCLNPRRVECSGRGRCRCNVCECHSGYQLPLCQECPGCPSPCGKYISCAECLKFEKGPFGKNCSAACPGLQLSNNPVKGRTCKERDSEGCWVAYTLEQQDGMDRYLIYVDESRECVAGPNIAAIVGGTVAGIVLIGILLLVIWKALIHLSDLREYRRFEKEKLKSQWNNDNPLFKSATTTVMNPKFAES

B1: S177/G: ICAM-1 domain 2 substitution mutant affecting an N-linked glycosylation site (protein, UniProt P05362 28-532, looked up, variant S177G)
Intercellular adhesion …: QTSVSPSKVILPRGGSVLVTCSTSCDQPKLLGIETPLPKKELLLPGNNRKVYELSNVQEDSQPMCYSNCPDGQSTAKTFLTVYWTPERVELAPLPSWQPVGKNLTLRCQVEGGAPRANLTVVLLRGEKELKREPAVGEPAEVTTTVLVRRDHHGANFSCRTELDLRPQGLELFENTGAPYQLQTFVLPATPPQLVSPRVLEVDTQGTVVCSLDGLFPVSEAQVHLALGDQRLNPTVTYGNDSFSAKASVSVTAEDEGTQRLTCAVILGNQSQETLQTVTIYSFPAPNVILTKPEVSEGTEVTVKCEAHPRAKVTLNGVPAQPLGPRAQLLLKATPEDNGRSFSCSATLEVAGQLIHKNQTRELRVLYGPRLDERDCPGNWTWPENSQQTPMCQAWGNPLPELKCLKDGTFPLPIGESVTVTRDLEGTYLCRARSTQGEVTRKVTVNVLSPRYEIVIITVVAAAVIMGTAGLSTYLYNRQRKIKKYRLQQAQKGTPMKPNTQATPP
LFA-1 Binding % (LFA-1): 59% | decrease in LFA-1 binding (LFA-1; COS cells expressing the mutant, relative to wild type): approximately two-fold | HRV Binding % (HRV14): 66% | Cl203 % WT (SLFI) (CL203 mAb): 87 % WT | SLFI (% CL203) RR/1 (RR1/1 mAb): 136 % CL203 | SLFI (% CL203) R6.5 (R6.5 mAb): 118 % CL203 | SLFI (% CL203) LB-2 (LB-2 mAb): 90 % CL203

B2: D71/N: ICAM-1 substitution mutant, D71 to N (protein, UniProt P05362 28-532, looked up, variant D71N)
Intercellular adhesion …: QTSVSPSKVILPRGGSVLVTCSTSCDQPKLLGIETPLPKKELLLPGNNRKVYELSNVQEDSQPMCYSNCPNGQSTAKTFLTVYWTPERVELAPLPSWQPVGKNLTLRCQVEGGAPRANLTVVLLRGEKELKREPAVGEPAEVTTTVLVRRDHHGANFSCRTELDLRPQGLELFENTSAPYQLQTFVLPATPPQLVSPRVLEVDTQGTVVCSLDGLFPVSEAQVHLALGDQRLNPTVTYGNDSFSAKASVSVTAEDEGTQRLTCAVILGNQSQETLQTVTIYSFPAPNVILTKPEVSEGTEVTVKCEAHPRAKVTLNGVPAQPLGPRAQLLLKATPEDNGRSFSCSATLEVAGQLIHKNQTRELRVLYGPRLDERDCPGNWTWPENSQQTPMCQAWGNPLPELKCLKDGTFPLPIGESVTVTRDLEGTYLCRARSTQGEVTRKVTVNVLSPRYEIVIITVVAAAVIMGTAGLSTYLYNRQRKIKKYRLQQAQKGTPMKPNTQATPP
LFA-1 Binding % (LFA-1): 79% | HRV Binding % (HRV14): 62% | decrease in HRV14 binding (HRV14): two-fold | Cl203 % WT (SLFI) (CL203 mAb): 109 % WT | SLFI (% CL203) RR/1 (RR1/1 mAb): 44 % CL203 | SLFI (% CL203) R6.5 (R6.5 mAb): 94 % CL203 | SLFI (% CL203) LB-2 (LB-2 mAb): 83 % CL203

B3: G46NN/ASI: ICAM-1 substitution mutant, G46NN to ASI (protein, UniProt P05362 28-532, looked up, variant G46A N47S N48I)
Intercellular adhesion …: QTSVSPSKVILPRGGSVLVTCSTSCDQPKLLGIETPLPKKELLLPASIRKVYELSNVQEDSQPMCYSNCPDGQSTAKTFLTVYWTPERVELAPLPSWQPVGKNLTLRCQVEGGAPRANLTVVLLRGEKELKREPAVGEPAEVTTTVLVRRDHHGANFSCRTELDLRPQGLELFENTSAPYQLQTFVLPATPPQLVSPRVLEVDTQGTVVCSLDGLFPVSEAQVHLALGDQRLNPTVTYGNDSFSAKASVSVTAEDEGTQRLTCAVILGNQSQETLQTVTIYSFPAPNVILTKPEVSEGTEVTVKCEAHPRAKVTLNGVPAQPLGPRAQLLLKATPEDNGRSFSCSATLEVAGQLIHKNQTRELRVLYGPRLDERDCPGNWTWPENSQQTPMCQAWGNPLPELKCLKDGTFPLPIGESVTVTRDLEGTYLCRARSTQGEVTRKVTVNVLSPRYEIVIITVVAAAVIMGTAGLSTYLYNRQRKIKKYRLQQAQKGTPMKPNTQATPP
LFA-1 Binding % (LFA-1): 49% | HRV Binding % (HRV14): 9% | decrease in HRV14 binding (HRV14): ten-fold | Cl203 % WT (SLFI) (CL203 mAb): 151 % WT | SLFI (% CL203) RR/1 (RR1/1 mAb): 140 % CL203 | SLFI (% CL203) R6.5 (R6.5 mAb): 107 % CL203 | SLFI (% CL203) LB-2 (LB-2 mAb): 113 % CL203

B4: K39KE/ERQ: ICAM-1 substitution mutant, K39KE to ERQ (protein, UniProt P05362 28-532, looked up, variant K39E K40R E41Q)
Intercellular adhesion …: QTSVSPSKVILPRGGSVLVTCSTSCDQPKLLGIETPLPERQLLLPGNNRKVYELSNVQEDSQPMCYSNCPDGQSTAKTFLTVYWTPERVELAPLPSWQPVGKNLTLRCQVEGGAPRANLTVVLLRGEKELKREPAVGEPAEVTTTVLVRRDHHGANFSCRTELDLRPQGLELFENTSAPYQLQTFVLPATPPQLVSPRVLEVDTQGTVVCSLDGLFPVSEAQVHLALGDQRLNPTVTYGNDSFSAKASVSVTAEDEGTQRLTCAVILGNQSQETLQTVTIYSFPAPNVILTKPEVSEGTEVTVKCEAHPRAKVTLNGVPAQPLGPRAQLLLKATPEDNGRSFSCSATLEVAGQLIHKNQTRELRVLYGPRLDERDCPGNWTWPENSQQTPMCQAWGNPLPELKCLKDGTFPLPIGESVTVTRDLEGTYLCRARSTQGEVTRKVTVNVLSPRYEIVIITVVAAAVIMGTAGLSTYLYNRQRKIKKYRLQQAQKGTPMKPNTQATPP
LFA-1 Binding % (LFA-1): 99% | HRV Binding % (HRV14): 61% | decrease in HRV14 binding (HRV14): two-fold | Cl203 % WT (SLFI) (CL203 mAb): 84 % WT | SLFI (% CL203) RR/1 (RR1/1 mAb): 47 % CL203 | SLFI (% CL203) R6.5 (R6.5 mAb): 93 % CL203 | SLFI (% CL203) LB-2 (LB-2 mAb): 87 % CL203

B5: R49KV/EKL: ICAM-1 substitution mutant, R49KV to EKL (protein, UniProt P05362 28-532, looked up, variant R49E V51L)
Intercellular adhesion …: QTSVSPSKVILPRGGSVLVTCSTSCDQPKLLGIETPLPKKELLLPGNNEKLYELSNVQEDSQPMCYSNCPDGQSTAKTFLTVYWTPERVELAPLPSWQPVGKNLTLRCQVEGGAPRANLTVVLLRGEKELKREPAVGEPAEVTTTVLVRRDHHGANFSCRTELDLRPQGLELFENTSAPYQLQTFVLPATPPQLVSPRVLEVDTQGTVVCSLDGLFPVSEAQVHLALGDQRLNPTVTYGNDSFSAKASVSVTAEDEGTQRLTCAVILGNQSQETLQTVTIYSFPAPNVILTKPEVSEGTEVTVKCEAHPRAKVTLNGVPAQPLGPRAQLLLKATPEDNGRSFSCSATLEVAGQLIHKNQTRELRVLYGPRLDERDCPGNWTWPENSQQTPMCQAWGNPLPELKCLKDGTFPLPIGESVTVTRDLEGTYLCRARSTQGEVTRKVTVNVLSPRYEIVIITVVAAAVIMGTAGLSTYLYNRQRKIKKYRLQQAQKGTPMKPNTQATPP
LFA-1 Binding % (LFA-1): 123% | HRV Binding % (HRV14): 49% | decrease in HRV14 binding (HRV14): two-fold | Cl203 % WT (SLFI) (CL203 mAb): 233 % WT | SLFI (% CL203) RR/1 (RR1/1 mAb): 103 % CL203 | SLFI (% CL203) R6.5 (R6.5 mAb): 97 % CL203 | SLFI (% CL203) LB-2 (LB-2 mAb): 52 % CL203

B6: Q1T/KA: ICAM-1 substitution mutant, Q1T to KA (protein, UniProt P05362 28-532, looked up, variant Q1K T2A)
Intercellular adhesion …: KASVSPSKVILPRGGSVLVTCSTSCDQPKLLGIETPLPKKELLLPGNNRKVYELSNVQEDSQPMCYSNCPDGQSTAKTFLTVYWTPERVELAPLPSWQPVGKNLTLRCQVEGGAPRANLTVVLLRGEKELKREPAVGEPAEVTTTVLVRRDHHGANFSCRTELDLRPQGLELFENTSAPYQLQTFVLPATPPQLVSPRVLEVDTQGTVVCSLDGLFPVSEAQVHLALGDQRLNPTVTYGNDSFSAKASVSVTAEDEGTQRLTCAVILGNQSQETLQTVTIYSFPAPNVILTKPEVSEGTEVTVKCEAHPRAKVTLNGVPAQPLGPRAQLLLKATPEDNGRSFSCSATLEVAGQLIHKNQTRELRVLYGPRLDERDCPGNWTWPENSQQTPMCQAWGNPLPELKCLKDGTFPLPIGESVTVTRDLEGTYLCRARSTQGEVTRKVTVNVLSPRYEIVIITVVAAAVIMGTAGLSTYLYNRQRKIKKYRLQQAQKGTPMKPNTQATPP
LFA-1 Binding % (LFA-1): 119% | HRV Binding % (HRV14): 11% | decrease in HRV14 binding (HRV14): ten-fold | Cl203 % WT (SLFI) (CL203 mAb): 230 % WT | SLFI (% CL203) RR/1 (RR1/1 mAb): 94 % CL203 | SLFI (% CL203) R6.5 (R6.5 mAb): 115 % CL203 | SLFI (% CL203) LB-2 (LB-2 mAb): 113 % CL203
